Measurements taken from patent US20170291955A1.

Columns and labels:
KI_II (mouse; human) [1] = target: KI_II (mouse; human) (UniProt P70424); assay: SPR (ProteOn), variant captured, 39S injected; apparent affinity
KO_I (mouse; human) = KO_I (mouse; human) (UniProt P70424); assay: SPR (ProteOn XPR36), variant captured by anti-Her2 polyclonal antibody, 39S injected; apparent affinity
KI_II (mouse; human) [2] = target: KI_II (mouse; human) (UniProt P70424); assay: as above

B1: 39S antibody (antibody, V domains shown)
VH: EVQLVESGGGLVKPGGSLRLSCAASGFTFSSYSMSWVRQAPGKGLEWVSSISSSSSYIYYADSVKGRFTISRDNAKNSLYLQMNSLRAEDTAVYYCARGGDAYNYYYFDYWGQGTLVTVSS
VL: DIVMTQTPLSLSVTPGQPASISCKSSQSVFFRSNNKNILAWYLQKPGQPPQLLIYWASSRESGVPDRFSGSGSGTDFTLKISRVEAEDVGVYYCQQYFGSPFTFGPGTKVDIK
KI_II (mouse; human) [1]
  Kd: 0.168 nM
KO_I (mouse; human)
  Kd: 0.095 nM
KI_II (mouse; human) [2]
  Kd: 0.163 nM
